In the supplement of paper PMC9170038:

Columns and labels:
[1] = test system: K4 kissing-loop RNA reporter; assay: apparent KD of K4 kissing-loop reporter; higher = weaker reporter binding; conditions: Eterna round: R107;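 also: bound reporter read as fluorescence of individual clusters on recovered sequencing chips by microscopy, with normalized cluster intensities fitted with a binding model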
Protocol: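 RNA-MaP round R107: designed RNA switches with theophylline, tryptophan, arginine or FMN aptamers are transcribed on-chip within common flanks. They are titrated with a labelled K4 kissing-loop RNA reporter in RNA-MaP buffer (100 mM Tris pH 7.5, 80 mM KCl, 4 mM MgCl2), without ligand or with the indicated ligand. Median apparent KD per design.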

MS2 coat protein = assay: apparent KD of MS2 coat protein; designed switch direction (-1 OFF switch, 1 ON switch): -1; higher = weaker reporter binding
Method in brief: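 Transcription of designed RNA switches on Illumina chips was done by stalled E. coli RNA polymerase. SNAP-549-labelled MS2 coat protein was then titrated in doubling steps from 0.7 or 1.5 nM to 3 µM, with steps of 0.8–1.5 h at the lowest and 10–20 min at the highest concentration. The per-design median over clusters of curve-fitted normalised fluorescence is reported as apparent KD.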

[2] = input ligand: theophylline 20 uM
[3] = input ligand: tryptophan 2.4 mM

Sequence	apparent KD of K4 kissing-loop reporter ([1]; input ligand: FMN 200 uM)	apparent KD of K4 kissing-loop reporter ([1]; input ligand: arginine 13.2 mM)	apparent KD of K4 kissing-loop reporter ([1]; input ligand: none)	apparent KD of K4 kissing-loop reporter [1, 2]	apparent KD of K4 kissing-loop reporter [1, 3]	apparent KD of MS2 coat protein (MS2 coat protein; input ligand: FMN 200 uM)	apparent KD of MS2 coat protein (MS2 coat protein; input ligand: microRNA oligo, concentration not stated)	apparent KD of MS2 coat protein (MS2 coat protein; input ligand: none)
AAAAUAAACCAGUGAUGUUGGUGUCCAGAUACCAGCGACAAAAGUCGCCCUUGGCAGCUGUGGACGUACAAAAUAAGUACGUCCU [MatMod 1 - Jieux - Same State - Theophylline A]	390 nM	271 nM	393 nM	256 nM	316 nM	–	–	–
AAACAUCACUGGGAGUGAUGUUCUCAGUGACGAGGACCGGUACGGCCGCCACUCGCGAGAGAUAUAAAUGAGUAAUGACAUCAUU [Excl Tryptophan A V2]	276 nM	236 nM	280 nM	258 nM	325 nM	–	–	–
AAACAUUGGUCGGAUACCAGCUUGAUCGGAAAACGAUCUGCUGGAGUGAUGUUCCAAUAAAGCCCUUGGCAGCCGACCGAUGAAA [MAT - Same State Theophlline B - Mod of Eli - D14]	814 nM	679 nM	1070 nM	747 nM	780 nM	–	–	–
AAAGCAGUAUACUGCAAGACCUAUACUGAUACCAGAGUCAAUUGACUCCCUUGGCAGCGGAUCGAGUGAUGUUCGUAAGGUCAAA [AK4.1 SS Theophylline A]	498 nM	555 nM	528 nM	734 nM	617 nM	–	–	–
AAAUAAUGCAGUCACCCAGUGAUGUUGGAAGGAGCGUGCGAAAGCACAGGUAGGUCGCCAAUAAUGAUAAAGUUCAGUGGCUUUA [JR_Nu_ExcArginiA_Sub030]	766 nM	682 nM	454 nM	464 nM	659 nM	–	–	–
AAAUUGUUUAGAGGAUAUUCUUUAUUCGACAUAACCUUCUAUAAGGUGCAGUGAUGUUGCAAUAUAGGAGAAGGUUGAGUGAUAA [Exclusion FMN B Gf 15]	135 nM	118 nM	136 nM	121 nM	113 nM	–	–	–
AAAUUUUCAAGUGAUACCAGACAUUUCUAUUACAUUAAUAUAGCUAAGUGAUGUUUAGCAGUCCCUUGGCAGCACUAUUUAAUUA [JR_SSTheophyB_Sub014]	201 nM	265 nM	253 nM	355 nM	216 nM	–	–	–
AACCGUGUGGCGGCCGCCACUAGUCUCCAGUGAUGUUGGAGAGAUCACGUAAGUGAUCUCCGACAUAGGACCGGGCCAUAUGGAA [Same State - Tryptophan B (Freestyle 24)]	509 nM	152 nM	295 nM	351 nM	661 nM	–	–	–
AACGCAAGUUGUCUGGUAGACAUUUCAGAUACCAGACAUAGUGAUGUCCCUUGGCAGCUGAACAUCCAGUGAUGUUGGAUACGUU [Theo A SS t11a]	444 nM	394 nM	513 nM	507 nM	400 nM	–	–	–
AACGUAGCUACUGAUACCAGACUUUUUCUUGUAUAUUAGUCAAGUGAUGUUUGACUUUUAGUCCCUUGGCAGCAGUUGCUACGAA [JR_Nu_SSTheophyB_Sub028]	89.2 nM	84.3 nM	91.4 nM	82.6 nM	98.3 nM	–	–	–
AACUCUCAGGCACGCGAGUGAUGUUCGCGCCGAGGACCGGUACGGCCGCCACUCGGGCCUGAGAGAGGUUAUCAAAGAUAGCCAA [whbob_SS_tryp_A]	306 nM	105 nM	137 nM	204 nM	250 nM	–	–	–
AACUUAAUUUAUAAGCAGUGAUGUUGCUUACGAGGACCGGUACGGCCGCCACUCGAUCGCAUUUAUGUCUUCAAUUAAUUCAUUA [JR_ExcTryptoA_Sub016]	178 nM	196 nM	197 nM	237 nM	195 nM	–	–	–
AAGAGGUAGGCGGCCGCCACUAGUUGUGAACACAUACAAGCCAGUGAUGUUGGUAUGGUGGGCGGUAGGACCGGGCCUACCUGAA [Exclusion - Tryptophan B (Freestyle 17)]	230 nM	263 nM	257 nM	250 nM	243 nM	–	–	–
AAGCAGUCACUCGAACCCAUCGAAGAUGGUCGAGGACCGGUACGGCCGCCACUCGGAGUGAUGUUCCGCAGACUGCAAAAUAAAA	376 nM	464 nM	426 nM	511 nM	312 nM	–	–	–
AAGGCAAUUCGAGGAUAUCACAUACACUCCUUGAAUCAAGGAGUGAUGUUCCUUGAAGUGUAUGCAUGAGAAGGCGAAUUGCCUU [#05 K4 FMN B Same State]	113 nM	86.5 nM	95.4 nM	99.3 nM	95.3 nM	–	–	–
AAGGCCACGAGAAGGAGCGUGUUGUGGAGUGAUGUUCCAUUGUAGACCUAAGGUCUACAAGCACAGGUAGGUCGCUCGUGGUCAA [Omei KL Arginine B SS A v5]	131 nM	120 nM	132 nM	112 nM	119 nM	–	–	–
UUUUUUUUGCGAGGAUAUGCUUUUAGUUAGUUAGCAGAAGGCGCGUUUCUUUUCUCCUCUUCUUACAUGAGGAUCACCCAUGUU [JR_ExcNG1_Sub034] (Eterna round: R96, puzzle: Exclusion NG 1)	–	–	–	–	–	55.7 nM	36.7 nM	54.1 nM
